The target of data set [1] is fully carboxylated recombinant human prothrombin, P00734.
Data set [2] has as its target incompletely carboxylated recombinant human prothrombin, P00734.

B1: recombinant ecarin (activated, in CHO-S culture supernatant) (protein)
chain: VPPHERKFEKKFIELVVVVDHSMVTKYNNDSTAIRTWIYEMLNTVNEIYLPFNIRVALVGLEFWCNGDLINVTSTADDTLHSFGEWRASDLLNRKRHDHAQLLTNVTLDHSTLGITFVYGMCKSDRSVELILDYSNITFNMAYIIAHEMGHSLGMLHDTKFCTCGAKPCIMFGKESIPPPKEFSSCSYDQYNKYLLKYNPKCILDPPLRKDIASPAVCGNEIWEEGEECDCGSPADCRNPCCDAATCKLKPGAECGNGECCDKCKIRKAGTECRPARDDCDVAEHCTGQSAECPRNEFQRNGQPCLNNSGYCYNGDCPIMLNQCIALFSPSATVAQDSCFQRNLQGSYYGYCTKEIGYYGKRFPCAPQDVKCGRLYCLDNSFKKNMRCKNDYSYADENKGIVEPGTKCEDGKVCINRKCVDVNTAY
In the case of B1, the activation of prothrombin entry in data set [1] was “the recombinant ecarin is able to efficiently activate both the fully carboxylated and the incompletely carboxylated prothrombins”; in data set [2], “the recombinant ecarin is able to efficiently activate both the fully carboxylated and the incompletely carboxylated prothrombins”.
